Source: the nanobody polyreactivity screen of Harvey et al. (2022)

Test: yeast display, Sf9 membrane polyspecificity reagent, FACS + sequencing; frameworks hold sequencing errors
How it was run: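 A nanobody's polyreactivity label depends on the gate it was sorted from. Yeast display cells were stained with 10% biotinylated, detergent-solubilized Sf9 membrane reagent for 1 hour at 4 °C, enriched on streptavidin microbeads and sorted by FACS. The low and high (top ~1%) gates were set on anti-HA fluorescence for expression and streptavidin fluorescence for reagent binding.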

QVQLVESGGGLVQAGGSLRLSCAASGSTFIANTMGWYRQAPGKERELVAAITDSGGSTYYADSVKGRFTISRDNAKNTVYLQMNSLKPEDTAVYYCNADYVYVFIRAWSYDYWGQGTQVTVSS
polyreactivity (PSR sort gate): low polyreactivity

QVQLVESGGGLVQAGGSLRLSCAASGSTFIFNAMGWYRQAPGKERELVAAISWRVGRTYYADSVKGRFTISRDNAKNTVYLQMNSLKPEDTAVYYCAAPKSSTGHYYSWGQGTQVTVSS
polyreactivity (PSR sort gate): low polyreactivity

QVQLVESGGGLVQAGGSLRLSCAASGSTFIFYAMGWYRQAPGKERELVATISGGGSTYYADSVKGRFTISRDNAKNTVYLQMNSLKPEDTAVYYCATDVQVPGIGRSVYAYEYWGQGTQVTVSS
polyreactivity (PSR sort gate): low polyreactivity

QVQLVESGGGLVQAGGSLRLSCAASGSTFIFYSMGWYRQAPGKERELVAAITSSGGSTYYADSVKGRFTISRDNANNTVYLQMNSLKPEDTAVYYCITLAYTYGSKFGYWGQGTQVTVSS
polyreactivity (PSR sort gate): low polyreactivity

QVQLVESGGGLVQAGGSLRLSCAASGSTFIFYTLGWYRQAPGKERELVAAITSNGGSTYYADSVKGRFTISRDTAKKTVYLQMNSLKPEDTAVDYCAKKGVGQYDWGQGTQVTVSS
polyreactivity (PSR sort gate): high polyreactivity

QVQLVESGGGLVQAGGSLRLSCAASGSTFIGNAMGWYRQAPGKERELVADISWSTASTYYADSVKGRFTISRDNAKNTVYLQMNSLKPEDTAVYYCARDPFVYLYLVDYDYWGQGTQVTVSS
polyreactivity (PSR sort gate): low polyreactivity

QVQLVESGGGLVQAGGSLRLSCAASGSTFIGYAMGWYRQAPGKERELVAAISRSDGSTYYADSVKGRFTISRDNAKNTVYLQMNSLKPEDTAVYYCNADYYRWYDYWGQGTQVTVSS
polyreactivity (PSR sort gate): low polyreactivity

QVQLVESGGGLVQAGGSLRLSCAASGSTFIGYDMGWYRQAPGKERELVAAISYSDGTYYADSVKGRFTISRDNAKNTVYLQMNSLKPEDTAVYYCAAVSLYYRYDYWGQGTQVTVSS
polyreactivity (PSR sort gate): low polyreactivity

QVQLVESGGGLVQAGGSLRLSCAASGSTFIGYTMGWYRQAPGKERELVAAIRYSSGRTYYADSVKGRFTISRDNAKNTVYLQMNSLKPEDTAVYYCAAANPRDHRGANDYWGQGTQVTVSS
polyreactivity (PSR sort gate): high polyreactivity

QVQLVESGGGLVQAGGSLRLSCAASGSTFIIYAMGWSRQAPGKERELVAAITRDGSTYADSVKRRFTISRDNAKNTVYLQMNRLKPEDTAVYYCAATSRQGYDYWGQGTEVTVSS
polyreactivity (PSR sort gate): high polyreactivity

QVQLVESGGGLVQAGGSLRLSCAASGSTFIIYAMGWYRQAPGKERELVAAITWRGGTTYYADSVKGRFTISRDNAKNTVYLQMNSLKPEDTAVYYCNAKFGYPFVDYDDYWGQGTKVTVSS
polyreactivity (PSR sort gate): low polyreactivity

QVQLVESGGGLVQAGGSLRLSCAASGSTFIKNAMGWYRQAPGKERELVAAISSSASSTYYADSVKGRFTISRDNAKNTVYLQMNSLKPEDTAVYYCAARASRKYNYWGQGTQVTVSS
polyreactivity (PSR sort gate): high polyreactivity

QVQLVESGGGLVQAGGSLRLSCAASGSTFINYAMGWYRQAPGKERELVAAISRSGGTTYYADSVKGRFTISRDNAKNTVYLQMNSLKPEDTAVYYCNATLGSYARTRYYYWGQGTQVTVSS
polyreactivity (PSR sort gate): high polyreactivity

QVQLVESGGGLVQAGGSLRLSCAASGSTFINYAMGWYRQAPGKERELVAAISSSGGRTYYADSVKGSFTISRDNAKNTVYFLMNSLKPEDTAVYYCAASGRKNGMNYWGQGTLVTVSS
polyreactivity (PSR sort gate): high polyreactivity

QVQLVESGGGLVQAGGSLRLSCAASGSTFIPNAMGWYRQAPGKERELVATIRSGGGRTYYADSVKGRFKISRDNAKNTVYLQMNSLKPEDTAVYYCAAGYYLSVQVYRFDYWGQGTQVTVSS
polyreactivity (PSR sort gate): high polyreactivity

QVQLVESGGGLVQAGGSLRLSCAASGSTFIQNAMGWYTQAPGKERELVAAITSGGGTNYADSVKGRFTISRDNAKNTVYLQMNSLKPEDTAVYYCAAEPFNYVEFWFGWEYQYDYWGQGTQVTVSS
polyreactivity (PSR sort gate): low polyreactivity

QVQLVESGGGLVQAGGSLRLSCAASGSTFIQYAMGWSRQAPGNERELVASIRWIGGSTYYADSVKGRFTISRDNAKNTVYLQMNSLKAEDTAVYYCAAGYEYVENGVDWYEYDYWGQGTQVTVSS
polyreactivity (PSR sort gate): low polyreactivity

QVQLVESGGGLVQAGGSLRLSCAASGSTFIRNAMGWYRQAPGKERELVAAINSGGNTYYADSVKGRFTISRDNAKNTVYLQMNSLKPEDTAVYYCAKAWGTYRSVYYRGYYWGQGTQVTVSS
polyreactivity (PSR sort gate): high polyreactivity

QVQLVESGGGLVQAGGSLRLSCAASGSTFIRYVMGWYRQAPGKERELVASITISVGSTYADSVKGRFTISRDNAKHTVYLQMNSLKPEDTAVYYCNARYVENTPYPYDYWGQGTQVTVSS
polyreactivity (PSR sort gate): low polyreactivity

QVQLVESGGGLVQAGGSLRLSCAASGSTFITYAMGWYRQAPGKERELVAAISTGGSTYYADSVKGRFTISRDNAKNTVYLQMNSLKPEDTAVYYCNAYSSSRGSTLQYSLQYDYWGQGTQVTVSS
polyreactivity (PSR sort gate): low polyreactivity

QVQLVESGGGLVQAGGSLRLSCAASGSTFIVNAMGWYRQAPGKERELVAAISRGGSTYYADSVKGRFTISRDNAKNTVYLQMNSLKPEHTAVYYCAARIWRTRRYDYWGQGTQVTVSS
polyreactivity (PSR sort gate): high polyreactivity

QVQLVESGGGLVQAGGSLRLSCAASGSTFIWNGIVWSRQAPGNEREWVAAITSSSTNYADSVKGRFTISRDNANNTVYVQMNSLKPEDTAVYYCAAEIYPLGSLRLGPGEYDHWGQGTQVTVSS
polyreactivity (PSR sort gate): low polyreactivity

QVQLVESGGGLVQAGGSLRLSCAASGSTFIYNTMGSYRQAPGKERELVATNTDSSDSTNYADSVKGRFTISRDNAKNTVYLQMNSLKPEDTAVYYCAADGEVDIATYPSQITDYDYWGQGTQVTVSS
polyreactivity (PSR sort gate): low polyreactivity

QVQLVESGGGLVQAGGSLRLSCAASGSTFKAYAMGWYRQAPGKEMELVAVITADGSTSTHYADSVKGRFTISRDNAKNTVSLQMNSLNPEDTAVYYCAAGSPYYSERYYYWGQGTQVTVSS
polyreactivity (PSR sort gate): low polyreactivity

QVQLVESGGGLVQAGGSLRLSCAASGSTFKFNAMGWYRQAPGKERELVAAISRGGRTNYADSVKGRFTISRDNAKNTVYLQMNSLKPEDTAVYYCAKDVAGLFHVGALYYYWGQGTQVTVSS
polyreactivity (PSR sort gate): low polyreactivity

QVQLVESGGGLVQAGGSLRLSCAASGSTFKGYAMGCYRQAPGKERELVAAISWSAGSTYYADSVKGRFTISRDNAKNTVYLQMNSLKPEDTAVYYCAKASVALRYYSYSLGRDYWGQGTQVTVSS
polyreactivity (PSR sort gate): low polyreactivity

QVQLVESGGGLVQAGGSLRLSCAASGSTFKHYAMGWYRQAPGKERELVAAISERGGSTYYADSVKGRFTISRDNAKNTVYLQMNSLKPEDTAVYYCARRVSRFSKFGYWGQGTQVTVSS
polyreactivity (PSR sort gate): high polyreactivity

QVQLVESGGGLVQAGGSLRLSCAASGSTFKPYTMGWYRQAPGKERELVAGISSVDSTYYADSVKGRFTISRDNAKNTVYLQMNSLKPEDTAVYYCAADTVYIFSSAINGEFGYWGQGTQVTVSS
polyreactivity (PSR sort gate): low polyreactivity

QVQLVESGGGLVQAGGSLRLSCAASGSTFKPYTMGWYRQAPGKERELVAGISSVDSTYYADSVKGRFTISRDNAKNTVYLQMNSLKPEDTAVYYCNKRKWPTFTYAMNYWGQGTQVTVSS
polyreactivity (PSR sort gate): low polyreactivity

QVQLVESGGGLVQAGGSLRLSCAASGSTFKQYAMGWYRQAPGKERELVAAIDRGGSTYYADSVKGRFTNSRDNAKNTVYLQMNSLKPEDTAVYFCAARFVQYLYAYDYWGQGTKVTVSS
polyreactivity (PSR sort gate): low polyreactivity

QVQLVESGGGLVQAGGSLRLSCAASGSTFKQYAMGWYRQAPGKERELVAAISSSGSTYYADSVKGRFTISRDNAKNTVYLQMNSLKPEDTAVYYCARSRYLWYTVPPKYGYWGQGTQVTVSS
polyreactivity (PSR sort gate): high polyreactivity

QVQLVESGGGLVQAGGSLRLSCAASGSTFKRNAMGWYRQAPGKERELVAAITYSGTRTYYADSVKGRFTISRDNAKNTVYLQMNSLKPEDTAVYYCAVSVPYGMDYWGQGTQVTVSS
polyreactivity (PSR sort gate): high polyreactivity

QVQLVESGGGLVQAGGSLRLSCAASGSTFKRYAMGLYRQAPGKERELVASIPSAASTYYADSVKGRFSISRDNAKNTVNLQMNSLKPEDTAVYYCAASAYSALYYWYDYWGQGTQVTVSS
polyreactivity (PSR sort gate): high polyreactivity

QVQLVESGGGLVQAGGSLRLSCAASGSTFKRYAMGRDRQAPGQERELVAAITWRGGSTYYADSVKGRFTISRDNAKNTVYLQMNSLKPEDTAVYYCNKASWKVGPGIGYDYWGQGTQVTVSS
polyreactivity (PSR sort gate): high polyreactivity

QVQLVESGGGLVQAGGSLRLSCAASGSTFKRYAMGWYRQAHGKERELVAAISRRGGSTYYADSVKGRFTISRDNAKNTVYLQMNSLKPEDTAVYYCAARGTGNIYDYWGQGTQVTVSS
polyreactivity (PSR sort gate): high polyreactivity

QVQLVESGGGLVQAGGSLRLSCAASGSTFKRYAMGWYRQAPGKERELVAAITRGGGSTYYADSVKGRFTISRDNAKNTVYLQMNSLKPEDTAVYYCNKGYRDYFTAYLSRYYWGQGTQVTVSS
polyreactivity (PSR sort gate): high polyreactivity

QVQLVESGGGLVQAGGSLRLSCAASGSTFKSYAMGWYRQAPGKERELVAAINWSGGSTYYADSVKGRFTISRDNAKNTVYLQMTSLKPEDTAVYYCNAVYAVRSYDSWGQGTQVTVSS
polyreactivity (PSR sort gate): high polyreactivity

QVQLVESGGGLVQAGGSLRLSCAASGSTFKSYAMGWYRQAPGKERELVAAITHRGSTYYADSVKGRFTISRDNAKNTVYLQMNSLKPEDTAVYYCAASLRAPSLGHYYYWGQGTQVTVSS
polyreactivity (PSR sort gate): high polyreactivity

QVQLVESGGGLVQAGGSLRLSCAASGSTFKVYAMGWYRQAPGKERELVAAISRSGGRTYYADSVKGRFTISRDNAKNTVYLQMNSLKPEDTAVYYCNRDYTFSQGHYSGSYGYWGQGTQVTVSS
polyreactivity (PSR sort gate): high polyreactivity

QVQLVESGGGLVQAGGSLRLSCAASGSTFKWYAMGWYRPAPGKEREFVAAITKTGGRTNYADSVKGRFTISRDNAKNTVYLQMNSLKPEDTAVYYCAAGYYAGIYYYWGQGTQVTVSS
polyreactivity (PSR sort gate): high polyreactivity

QVQLVESGGGLVQAGGSLRLSCAASGSTFKYNAMGWYRQAPGKERELVAAITRGGRTYYADSVKGRFTISRDNAKNTVYLQMNSLKPEDTAVYYCAAKWLGTAGDDYWGQGTQVTVSS
polyreactivity (PSR sort gate): high polyreactivity

QVQLVESGGGLVQAGGSLRLSCAASGSTFKYYAKGWYRQAPGKERELVAAISASGGTTYYADSVKGRFTISRDNAKNTVYLQMNSLKPEDTAVYYCAARYLTTFSRTDMEYWGQGTQVTVSS
polyreactivity (PSR sort gate): low polyreactivity

QVQLVESGGGLVQAGGSLRLSCAASGSTFKYYSIGWYRQAPGKERELVASITGRTVGTYYADSVKGRFTISRDIAKNTVYLQMNSLKPEDTAVFYCATDLYWDYPDKGYTVSWWYGYWGQGTQVTVSS
polyreactivity (PSR sort gate): low polyreactivity
